Values of other authors in article PMC9594772.
pKd: −log10 of the molar value.

Target: Dll4 ECD (Rattus norvegicus) (UniProt D3ZHH1)
Sequence (D3ZHH1 28-530): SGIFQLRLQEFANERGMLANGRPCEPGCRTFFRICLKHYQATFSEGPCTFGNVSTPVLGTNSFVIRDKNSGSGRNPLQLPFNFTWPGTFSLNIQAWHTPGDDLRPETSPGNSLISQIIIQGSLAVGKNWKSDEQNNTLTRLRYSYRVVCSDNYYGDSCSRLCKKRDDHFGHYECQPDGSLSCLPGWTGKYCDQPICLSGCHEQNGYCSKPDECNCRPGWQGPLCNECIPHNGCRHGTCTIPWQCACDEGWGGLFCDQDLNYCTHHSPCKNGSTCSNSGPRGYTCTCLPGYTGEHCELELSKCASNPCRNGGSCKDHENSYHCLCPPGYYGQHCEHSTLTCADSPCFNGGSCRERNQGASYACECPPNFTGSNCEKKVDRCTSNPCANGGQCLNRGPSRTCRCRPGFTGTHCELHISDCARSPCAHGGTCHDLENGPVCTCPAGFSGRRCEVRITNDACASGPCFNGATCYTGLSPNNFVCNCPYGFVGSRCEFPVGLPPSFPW

For Notch1 (from UniProt P46531), the pKd is given as 4.90.
